Assay results taken from publication PMC5347793, “Transcription factor LSF-DNMT1 complex dissociation by FQI1 leads to aberrant DNA methylation and gene expression” (Oncotarget, 2016).

B1: GST-DNMT1 (amino acids 431-836) (domain or fragment, human, UniProt P26358 431-836, looked up)
chain: IELFFSGSAKPIYDDDPSLEGGVNGKNLGPINEWWITGFDGGEKALIGFSTSFAEYILMDPSPEYAPIFGLMQEKIYISKIVVEFLQSNSDSTYEDLINKIETTVPPSGLNLNRFTEDSLLRHAQFVVEQVESYDEAGDSDEQPIFLTPCMRDLIKLAGVTLGQRRAQARRQTIRHSTREKDRGPTKATTTKLVYQIFDTFFAEQIEKDDREDKENAFKRRRCGVCEVCQQPECGKCKACKDMVKFGGSGRSKQACQERRCPNMAMKEADDDEEVDDNIPEMPSPKKMHQGKKKKQNKNRISWVGEAVKTDGKKSYYKKVCIDAETLEVGDCVSVIPDDSSKPLYLARVTALWEDSSNGQMFHAHWFCAGTDTVLGATSDPLELFLVDECEDMQLSYIHSKVKVIY
B2: MBP-LSF fusion protein (purified full-length LSF) (natural protein, human, UniProt Q12800 1-502, looked up)
chain: MAWALKLPLADEVIESGLVQDFDASLSGIGQELGAGAYSMSDVLALPIFKQEESSLPPDNENKILPFQYVLCAATSPAVKLHDETLTYLNQGQSYEIRMLDNRKLGELPEINGKLVKSIFRVVFHDRRLQYTEHQQLEGWRWNRPGDRILDIDIPMSVGIIDPRANPTQLNTVEFLWDPAKRTSVFIQVHCISTEFTMRKHGGEKGVPFRVQIDTFKENENGEYTEHLHSASCQIKVFKPKGADRKQKTDREKMEKRTPHEKEKYQPSYETTILTECSPWPEITYVNNSPSPGFNSSHSSFSLGEGNGSPNHQPEPPPPVTDNLLPTTTPQEAQQWLHRNRFSTFTRLFTNFSGADLLKLTRDDVIQICGPADGIRLFNALKGRMVRPRLTIYVCQESLQLREQQQQQQQQQQKHEDGDSNGTFFVYHAIYLEELTAVELTEKIAQLFSISPCQISQIYKQGPTGIHVLISDEMIQNFQEEACFILDTMKAETNDSYHIILK
B3: GST-DNMT1 (amino acids 1-446) (domain or fragment, human, UniProt P26358 1-446, looked up)
chain: MPARTAPARVPTLAVPAISLPDDVRRRLKDLERDSLTEKECVKEKLNLLHEFLQTEIKNQLCDLETKLRKEELSEEGYLAKVKSLLNKDLSLENGAHAYNREVNGRLENGNQARSEARRVGMADANSPPKPLSKPRTPRRSKSDGEAKPEPSPSPRITRKSTRQTTITSHFAKGPAKRKPQEESERAKSDESIKEEDKDQDEKRRRVTSRERVARPLPAEEPERAKSGTRTEKEEERDEKEEKRLRSQTKEPTPKQKLKEEPDREARAGVQADEDEDGDEKDEKKHRSQPKDLAAKRRPEEKEPEKVNPQISDEKDEDEKEEKRRKTTPKEPTEKKMARAKTVMNSKTHPPKCIQCGQYLDDPDLKYGQHPPDAVDEPQMLTNEKLSIFDANESGFESYEALPQHKLTCFSVYCKHGHLCPIDTGLIEKNIELFFSGSAKPIYDDD
B4: GST-LSF (amino acids 65-259), DNA binding domain (domain or fragment, human, UniProt Q12800 65-259, looked up)
chain: LPFQYVLCAATSPAVKLHDETLTYLNQGQSYEIRMLDNRKLGELPEINGKLVKSIFRVVFHDRRLQYTEHQQLEGWRWNRPGDRILDIDIPMSVGIIDPRANPTQLNTVEFLWDPAKRTSVFIQVHCISTEFTMRKHGGEKGVPFRVQIDTFKENENGEYTEHLHSASCQIKVFKPKGADRKQKTDREKMEKRTP
notes: Cloned into pGEX-5X-1; also called LSF65-259; source: E. coli, captured on Glutathione Sepharose beads

Assays:
[1] = target: B2; test: pull-down; GST-DNMT1 fusions on beads incubated with 1 ug purified MBP-LSF; immunoblot with anti-LSF; settings: both partners purified
[2] = target: T1, purified full-length DNMT1 (recombinant, baculovirus expressed) (human, UniProt P26358 1-1616); test: cell-based or functional assay
[3] = target: T1, purified full-length DNMT1 …; test: pull-down; as a4, in the presence of 2.5 uM FQI1; settings: both partners purified

Binder: B1
- binding result [1]: binds

Binder: B2
- DNA methyltransferase activity of purified DNMT1 (80 nM) with His-LSF recombinant protein, molar ratio of His-LSF to DNMT1 from 2:1 to 4:1 [2]: ~2 fold

Binder: B3
- binding result [1]: binds

Binder: B4
- binding result [3]: binds
